Test results taken from patent US20160115226A1 (SINGH MOLECULAR MEDICINE, published 2016).
Read-outs that look alike come from different tables or passages of the source.

B1: STAT3 VHH13 (SEQ ID NO:3) produced and isolated from mammalian cells (VHH)
VHH: HVQLVESGGGSVQAGGSLRLSCAASGANGGRSCMGWFRQVPGKEREGVSGISTGGLITYYADSVKGRFTISQDNTKNTLYLQMNSLKPEDTAMYYCATSRFDCYRGSWFNRYMYNSWGQGTQVTVSS

Legend:
[1] = target: GST-STAT3 (16 kDa monovalent antigen, Creative BioMart #STAT3-1476H) (UniProt P40763)
[2] = target: GST-STAT3 (16 kDa monovalent antigen, Creative BioMart #STAT3-1476H) (UniProt P40763); remark: listed apart in the source
[3] = target: GST-STAT3 (16 kDa monovalent antigen, Creative BioMart #STAT3-1476H) (UniProt P40763); remark: listed apart in the source
[4] = target: endogenous STAT3 in human cancer cell lysates (MDA-MB-231, PANC-1, DU145) (human, UniProt P40763 2-770)
Chain of endogenous STAT3 in human cancer cell lysates (MDA-MB-231, PANC-1, DU145) (P40763 2-770 limits assumed): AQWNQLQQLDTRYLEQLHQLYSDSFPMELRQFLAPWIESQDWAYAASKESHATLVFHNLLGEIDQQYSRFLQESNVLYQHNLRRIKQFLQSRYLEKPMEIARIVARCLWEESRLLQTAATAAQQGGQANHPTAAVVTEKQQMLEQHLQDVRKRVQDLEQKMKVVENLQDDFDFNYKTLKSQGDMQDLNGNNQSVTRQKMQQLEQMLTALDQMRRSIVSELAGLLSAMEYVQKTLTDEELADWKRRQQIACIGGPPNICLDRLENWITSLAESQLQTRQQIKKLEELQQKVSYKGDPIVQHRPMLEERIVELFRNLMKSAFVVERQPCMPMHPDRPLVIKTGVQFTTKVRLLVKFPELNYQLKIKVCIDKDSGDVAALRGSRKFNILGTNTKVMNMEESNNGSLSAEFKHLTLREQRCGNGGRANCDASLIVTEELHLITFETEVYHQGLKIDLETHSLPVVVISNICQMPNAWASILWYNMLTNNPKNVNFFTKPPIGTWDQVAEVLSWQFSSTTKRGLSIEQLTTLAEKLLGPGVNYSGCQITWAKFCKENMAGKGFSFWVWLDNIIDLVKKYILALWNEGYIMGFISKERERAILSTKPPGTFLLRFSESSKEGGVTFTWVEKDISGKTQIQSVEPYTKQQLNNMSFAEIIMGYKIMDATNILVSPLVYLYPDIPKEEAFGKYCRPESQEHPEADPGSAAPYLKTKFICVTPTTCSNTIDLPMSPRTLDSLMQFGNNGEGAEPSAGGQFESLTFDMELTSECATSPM

| Molecule | Kd [1] [nM] | koff [1] [s⁻¹] | kon [1] [M⁻¹ s⁻¹] | Kd [2] [nM] | koff [2] [s⁻¹] | kon [2] [M⁻¹ s⁻¹] | Kd [3] [nM] | koff [3] [s⁻¹] | kon [3] [M⁻¹ s⁻¹] | binding result [4] |
| --- | --- | --- | --- | --- | --- | --- | --- | --- | --- | --- |
| anti-KRAS (negative control) (VHH) | 4.32 | 0.000386 | 89300 | 29.2 | 0.00048 | 16500 | 67.5 | 0.000801 | 11900 |  |
| B1 |  |  |  |  |  |  |  |  |  | binds |
